Measurements as given in article PMC12714728 (npj Viruses, 2025).
Starred links: 1 amine or outer side, 2 acyl side, 3 side chain; linkers in the order of their positions; H or OH if unused. Positions of bridges follow the written chain, without caps; N, C: chain ends. No end group written: not given here. Suc = O=C(CCC(=O)[*:2])[*:1]

B1: cyclic peptide CP11 (peptide)
peptide: CYRDPLGVAGGMC
modifications: disulfide 1-13
notes: source: synthetic peptide (manual solid phase Fmoc chemistry, iodine oxidation, RP-HPLC)
B2: cyclic peptide CP14 (peptide)
peptide: LYEDPLGVAGGMG
modifications: head-to-tail lactam cyclized (no template)
notes: source: synthetic peptide (manual solid phase Fmoc chemistry, RP-HPLC)
B3: cyclic peptide CP8 (peptide)
peptide: CLYRDPLGVAGGMGC
modifications: not fully specified (bridges); cysteine pairing not given here
notes: as for B1
B4: linear peptide LP1 (peptide)
peptide: Suc-VSLYRDPLGVAGGMGVY-NH2
notes: as for B2

The binders below were run against T1, hemagglutinin (HA) ectodomain of A/Vietnam/1203/2004 (H5N1) (influenza A virus A/Vietnam/1203/2004 …) (assay: AlphaScreen or HTRF). Settings: both partners purified.
B1 was tested, and the IC50 was 7.78 µM.
Binder B2 has an IC50 of 10 µM.
CYEDPLGVAGGMC (not fully specified; cysteine pairing not given here) [cyclic peptide CP12] was tested, and the IC50 was 28.8 µM.
For CYRDPLGVAGEMC (not fully specified; cysteine pairing not given here) [cyclic peptide CP13], the IC50 was 39.8 µM.
In the case of B3, the IC50 is reported as 1.55 µM.
B4 showed an IC50 of 47.9 µM.

Each binder was assayed against T1, hemagglutinin (HA) ectodomain of … (assay: cell-based or functional assay). Settings: not given.
With B3 the “virus neutralization assay (VNA) EC50, H5/Viet virus” value was 34.6 µM.
